B1: Frutalin produced in E. coli in fusion with TrxA (TrxFTL) (natural protein, Artocarpus incisa)
chain: SSGENLYFQGAMGNQQSGKSQTVIVGPWGAKVSTSSNGKAFDDGAFTGIREINLSYNKETAIGDFQVVYDLNGSPYVGQNHKSFITGFTPVKISLDFPSEYIMEVSGYTGNVSGYVVVRSLTFKTNKKTYGPYGVTSGTPFNLPIENGLIVGFKGSIGYWLDYFSMYLSL
notes: 13 extra amino acids between the 6xHistag and frutalin; not glycosylated; Vector pETM20; also called FTL in fusion with TrxA; source: E. coli BL21(DE3) (NZYBL21), purified (IMAC, Nickel HisTrap); not shown: TrxA, N-terminal, kept; His6, internal (between TrxA and the TEV recognition site), kept
B2: Frutalin produced in E. coli cleaved from TrxFTL (cFTL) (natural protein, Artocarpus incisa)
chain: GAMGNQQSGKSQTVIVGPWGAKVSTSSNGKAFDDGAFTGIREINLSYNKETAIGDFQVVYDLNGSPYVGQNHKSFITGFTPVKISLDFPSEYIMEVSGYTGNVSGYVVVRSLTFKTNKKTYGPYGVTSGTPFNLPIENGLIVGFKGSIGYWLDYFSMYLSL
notes: residues left after TEV cleavage (GA) and MG from the cloning restriction site; not glycosylated; 17421.61 Da by calculation; also called cleaved FTL; FTL cleaved from TrxFTL; source: E. coli BL21(DE3) (NZYBL21), purified (IMAC, TEV digestion, reverse IMAC on Ni-NTA); not shown: TrxA, N-terminal, cleaved; His6, N-terminal, cleaved

Biological target: the molecule itself
Assay: dynamic light scattering; protein at 0.8-1.0 mg/mL in phosphate buffer, room temperature, filtered through 0.45 um; size distribution by intensity; measured diameter compared with that expected from the theoretical MW of a tetramer

| Protein | stoichiometry N |
| --- | --- |
| B1 | 4 |
| B2 | 4 |

From paper PMC8401544, “Cytotoxicity of Frutalin on Distinct Cancer Cells Is Independent of Its Glycosylation” (Molecules, 2021)
